In one assay the test system is endogenous REST protein. The experiment in a line: Western blot of endogenous REST protein levels in transfected E12.5 neurospheres. The assay is classed as cell-based. Particulars: E12.5 mouse cortical neurospheres after transfection; MG132 4 h; compared to control peptides. Here is the method: FIG. 7B is an image of a Western blot showing endogenous REST protein levels in E12.5 neurospheres after transfection. Lane 1, empty vector; lane 2, control (595-694) peptide; lane 3, REST(810-910) S861/864A peptide; lane 4, REST(810-910) WT peptide; lane 5, empty vector with MG132 treated for 4 h. The blot was probed with anti-mouse-REST antibody and anti-tubulin (loading control) antibodies.
There is a significant difference between REST (810-910) compared to control (595-694) peptide (n=5, p=0.0021) and REST(810-910) compared to S861/864A REST(810-910) (n=5, p=0.046). The difference between MG132 and REST(810-910) is not significant (n=5, p=0.7996, Sidak's multiple comparison test, error bars represent 95% confidence interval).
The Examples above used the REST (810-910) reporter as a surrogate substrate for signaling molecules that target S861/S864 on full-length REST. […]
Whole cell lysates were prepared and immunoprecipitated following the procedures in Ballas N et al, 2001 supra and Nesti E et al, Mol Biol Cell 15, 4073-4088 (2004); incorporated by reference herein. Western blots were performed by standard procedures using antibodies described below and analyzed using anti IgG conjugated to infrared dyes (ThermoFisher) on an Odyssey® infrared fluorescence imager (LiCor). […] Infrared fluorescence was detected on the Odyssey® imager (LiCor) in the 700 nm channel. […]
Background: In western blotting, separated proteins are transferred to a membrane and probed.

A further assay relates to E12.5 neurospheres. As to the kind of experiment: Neuronal differentiation of E12.5 neurospheres (MAP2 immunostaining). The assay is classed as cell-based, mouse. To be noted: neurospheres differentiated 10 d, versus control (595-694) peptide, p<0.0001. The text has this: FIG. 8A is a photomicrograph of representative immuno-labeled E12.5 neurospheres transfected with REST (810-910)- or control peptide-IRES-GFP, sorted, and then allowed to differentiate for 10 d in culture. White, DAPI nuclei; Red, MAP2 antibody.
Results are from three different transfections. Fields were selected from multiple places on the cover slip, number of cells indicated on bars (p<0.0001, unpaired t test).
Previous studies indicate that persistent REST expression in progenitors inhibits neuronal differentiation. Therefore, it was assessed whether stabilization of REST, via expression of the unmutated REST (810-910) peptide in neural progenitors, would also hinder neuronal differentiation. Mouse neurosphere cultures were immunostained for Microtubule Associated […] 2 (MAP2), a marker of mature neurons, at days 0 and 10 post-transfection. On day 0 there was negligible MAP2 signal and no significant difference between the two conditions.
HEK293T cells were transfected using Lipofectamine 2000 (Life Technologies) following the manufacturer's instructions. PC12 tet, PC12 tet-on FLAG-REST, and HEK293T cell lines were maintained as described in Ballas N et al 2001 supra. […]

A further assay concerns neural progenitor cells. The experiment in a line: Cortical neuronal migration after in utero electroporation in rat embryos. The assay is classed as in vivo. Particulars: cDNA electroporated in utero at E16, harvested E18, 6 embryos, 18 cortical slices. Here is the method:
REST protein lacking S861/864 (negative control) and wild-type REST (810-910) peptide (experimental) were expressed in the lateral ventrical of the cortex of rat embryos (E16) by injection and in utero electroporation of the respective cDNA into neural stem cells. The embryos were then allowed to gestate for 48 hours (E18) prior to harvesting. Panel 1 and 2 are representative E18 cortical brain slices expressing REST protein lacking S861/864 (negative control) and wild-type REST protein (experimental).
FIG. 11B is a plot showing that the effect of wild type REST (810-910) peptide on neuronal migration is quantitative. […] No significant difference in neural stem cell migration between the control REST protein lacking S861/864 (negative control) and the wild-type REST (810-910) peptide (experimental) in the SVZ and the intermediate zone (IZ) (Boxes 1 and 2). […] Error bars represent standard deviation, (**P<0.001, *P<0.01 unpaired t test).

B1: REST (810-910) peptide: peptide encoding amino acids 810-to-910 of REST with unmutated S861/S864, expressed from cDNA (protein)
chain: ISKKPPLRKDKKEKSNMQSERARKEQVLIEVGLVPVKDSWLLKESVSTEDLAPPAPPLPKENLREEASGDQKLLNTGEGNKEAPLQKVGAEEADESLPGLA
For the molecule B1, in the assay on endogenous REST protein, the “Endogenous full-length REST protein levels” value is “significantly stabilized endogenous full-length REST protein”. In the assay with E12.5 neurospheres, the MAP2-positive cells result is recorded as “fewer MAP2-positive cells”. The “Migration of neural progenitor cells from the SVZ toward the cortical plate (CP)” value in the assay on neural progenitor cells is given as “significantly less migration to the CP”.

These data come from patent publication US20160031958A1, “METHODS AND COMPOSITIONS USEFUL IN MANIPULATING THE STABILITY OF RE1 SILENCING TRANSCRIPTION FACTOR” (OREGON HEALTH & SCIENCE UNIVERSITY, priority 2014, published 2016).
